# Values joined by “and” are separate entries in the source; they are usually repeats but may differ in a detail not shown here. Equal entries are not always repeated.
# Tests used:
# Assay in all cases: native gel or EMSA; purified p66 on NativePage Novex Bis-Tris gel, then Western blotting with mouse monoclonal anti-RT antibody; in the presence or absence of β-mercaptoethanol
# [1] = target: HIV-1 reverse transcriptase p66 subunit, mutant I274A (HIV-1 (pNL4-3-ΔE-EGFP))
# [2] = target: HIV-1 reverse transcriptase p66 subunit, mutant Y271A (HIV-1 (pNL4-3-ΔE-EGFP))
# [3] = target: HIV-1 reverse transcriptase p66 subunit, wild type (HIV-1 (pNL4-3-ΔE-EGFP))
substance,measurement,setting,value
"HIV-1 reverse transcriptase p66 subunit, mutant I274A (enzyme)",stoichiometry N,[1],4 and 8
"HIV-1 reverse transcriptase p66 subunit, mutant Y271A (enzyme)",stoichiometry N,[2],2 and 4
"HIV-1 reverse transcriptase p66 subunit, wild type (enzyme)",stoichiometry N,[3],2

# Reference: paper PMC2701634
